System: Escherichia coli TOP10
Test: shrunken log2 fold change of peptide-encoding DNA abundance (4.5 h post-induction vs induction); higher = less antimicrobial activity (less host growth inhibition)
Conditions: time post-induction: 4.5 h; library: site-saturation at positions 5, 18, 19, 20
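Further: peptides expressed intracellularly from a pBAD plasmid library in pooled LB shake-flask culture, induced with 0.3% L-arabinose, DNA abundance read by NGS, three biological replicates, DESeq2 with apeglm shrinkage.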

Sequence | shrunken log2 fold change
RRIRQRPPRLPRPRPRPEMMPRP | 0.151
RRIRMRPPRLPRPRPRPFNSPRP | -0.326
RRIRWRPPRLPRPRPRPHDDPRP | 0.0487
RRIRQRPPRLPRPRPRPQSQPRP | -0.159
RRIRRRPPRLPRPRPRPTLWPRP | 0.563
RRIRTRPPRLPRPRPRPYWYPRP | -0.574
RRIRYRPPRLPRPRPRPHMWPRP | -0.621
RRIRWRPPRLPRPRPRPDLCPRP | 0.777
RRIRNRPPRLPRPRPRPRHNPRP | -0.403
RRIRYRPPRLPRPRPRPLHQPRP | -0.608
RRIRGRPPRLPRPRPRPHCAPRP | 0.606
RRIRFRPPRLPRPRPRPCESPRP | 0.00749
RRIRNRPPRLPRPRPRPLPNPRP | -0.0288
RRIRCRPPRLPRPRPRPDYFPRP | -0.248
RRIRQRPPRLPRPRPRPSTFPRP | -0.176
RRIRHRPPRLPRPRPRPIALPRP | -0.355
RRIRLRPPRLPRPRPRPCAAPRP | 0.236
RRIRMRPPRLPRPRPRPPKIPRP | 0.45
RRIRSRPPRLPRPRPRPCGTPRP | 0.202
RRIRLRPPRLPRPRPRPWQHPRP | -0.319
RRIRWRPPRLPRPRPRPDRFPRP | 0.0986
RRIRLRPPRLPRPRPRPLTTPRP | -0.0027
RRIRYRPPRLPRPRPRPQHHPRP | -0.55

Sequence | shrunken log2 fold change
RRIRFRPPRLPRPRPRPIQHPRP | -0.196
RRIRQRPPRLPRPRPRPSLIPRP | -0.275
RRIRQRPPRLPRPRPRPCLSPRP | -0.383
RRIRYRPPRLPRPRPRPCLIPRP | -0.00819
RRIRYRPPRLPRPRPRPAALPRP | -0.478
RRIRVRPPRLPRPRPRPIKDPRP | 0.0334
RRIRCRPPRLPRPRPRPVVCPRP | 0.113
RRIRRRPPRLPRPRPRPRGDPRP | 0.393
RRIRQRPPRLPRPRPRPCMKPRP | -0.0118
RRIRMRPPRLPRPRPRPNRFPRP | -0.0257
RRIRKRPPRLPRPRPRPKWPPRP | -0.031
RRIRIRPPRLPRPRPRPDVWPRP | -0.109
RRIRSRPPRLPRPRPRPRSTPRP | 0.0523
RRIRGRPPRLPRPRPRPFLHPRP | 0.0811
RRIRARPPRLPRPRPRPAYHPRP | -0.0226
RRIRYRPPRLPRPRPRPTESPRP | 0.0538
RRIRPRPPRLPRPRPRPKAFPRP | -0.198
RRIRCRPPRLPRPRPRPEASPRP | 0.14
RRIRWRPPRLPRPRPRPANHPRP | -0.262
RRIRRRPPRLPRPRPRPLWGPRP | 0.0229
RRIRTRPPRLPRPRPRPIYNPRP | -0.254
RRIRERPPRLPRPRPRPMRCPRP | 0.0239
RRIRTRPPRLPRPRPRPENLPRP | -0.0254

Sequence | shrunken log2 fold change
RRIRYRPPRLPRPRPRPPCTPRP | -0.33
RRIRARPPRLPRPRPRPNRVPRP | 0.0397
RRIRQRPPRLPRPRPRPHLRPRP | -0.0964
RRIRDRPPRLPRPRPRPTQFPRP | 0.216
RRIRIRPPRLPRPRPRPAWDPRP | -0.0871
RRIRPRPPRLPRPRPRPHNVPRP | -0.104
RRIRWRPPRLPRPRPRPMSSPRP | 0.0453
RRIRNRPPRLPRPRPRPGFEPRP | 0.123
RRIRYRPPRLPRPRPRPSTKPRP | -0.225
RRIRCRPPRLPRPRPRPHSSPRP | -0.823
RRIRKRPPRLPRPRPRPMGYPRP | -0.0267
RRIRVRPPRLPRPRPRPDHWPRP | 0.152
RRIRCRPPRLPRPRPRPDIDPRP | -0.182
RRIRPRPPRLPRPRPRPEEYPRP | 0.00398
RRIRKRPPRLPRPRPRPIQMPRP | -0.107
RRIRWRPPRLPRPRPRPCHVPRP | -0.437
RRIRCRPPRLPRPRPRPECRPRP | 0.0543
RRIRFRPPRLPRPRPRPEFNPRP | -0.199
RRIRARPPRLPRPRPRPPIYPRP | 0.0905
RRIRPRPPRLPRPRPRPWVAPRP | 0.014
RRIRHRPPRLPRPRPRPMVCPRP | -0.0703
RRIRFRPPRLPRPRPRPPAFPRP | 0.112
RRIRDRPPRLPRPRPRPDRQPRP | 0.0286

Sequence | shrunken log2 fold change
RRIRLRPPRLPRPRPRPSMYPRP | -0.261
RRIRNRPPRLPRPRPRPMDPPRP | -0.0437
RRIRQRPPRLPRPRPRPFTIPRP | 0.0944
RRIRIRPPRLPRPRPRPWFQPRP | -0.0137
RRIRIRPPRLPRPRPRPTDNPRP | -0.964
RRIRMRPPRLPRPRPRPGRFPRP | 0.0931
RRIRARPPRLPRPRPRPIEGPRP | 0.504
RRIRSRPPRLPRPRPRPTPTPRP | 0.676
RRIRNRPPRLPRPRPRPRWKPRP | -0.109
RRIRWRPPRLPRPRPRPAWHPRP | 0.162
RRIRDRPPRLPRPRPRPRVQPRP | -0.183
RRIRERPPRLPRPRPRPADVPRP | 0.00489
RRIRDRPPRLPRPRPRPEMYPRP | 0.363
RRIRYRPPRLPRPRPRPICVPRP | -0.293
RRIRCRPPRLPRPRPRPHQMPRP | -0.691
RRIRWRPPRLPRPRPRPRDQPRP | -0.033
RRIRPRPPRLPRPRPRPRQWPRP | 0.485
RRIRSRPPRLPRPRPRPIRKPRP | 0.143
RRIRLRPPRLPRPRPRPEKEPRP | 0.263
RRIRHRPPRLPRPRPRPPTDPRP | -0.254
RRIRPRPPRLPRPRPRPECAPRP | 0.698
RRIRLRPPRLPRPRPRPRRNPRP | 0.0956

Reference: the supplement of paper PMC9112550, “Optimization of the antimicrobial peptide Bac7 by deep mutational scanning” (BMC Biology, 2022)
